Source: the supplement of paper PMC11246515
± gives the standard deviation of the averaged measurements.

Test: total protein half-life in vivo (active degradation + dilution); higher = more stable protein
[1] = E. coli NCM3722 delta-clpP delta-lon delta-hslV, growth: N-lim chemostat, doubling time 6 h
[2] = E. coli NCM3722 delta-clpP, growth: N-lim chemostat, doubling time 6 h
[3] = E. coli NCM3722 delta-hslV, growth: N-lim chemostat, doubling time 6 h
[4] = E. coli NCM3722 delta-lon, growth: N-lim chemostat, doubling time 6 h
[5] = E. coli NCM3722 delta-smpB, growth: N-lim chemostat, doubling time 6 h
[6] = wild type E. coli NCM3722, growth: C-lim chemostat, doubling time 3 h
[7] = wild type E. coli NCM3722, growth: C-lim chemostat, doubling time 6 h
[8] = wild type E. coli NCM3722, growth: C-lim chemostat, doubling time 12 h
[9] = wild type E. coli NCM3722, growth: N-lim chemostat, doubling time 6 h
[10] = wild type E. coli NCM3722, growth: N-lim chemostat, doubling time 12 h
[11] = wild type E. coli NCM3722, growth: P-lim chemostat, doubling time 6 h
[12] = wild type E. coli NCM3722, growth: P-lim chemostat, doubling time 12 h

Sequence | total protein half-life in vivo [1] | total protein half-life in vivo [2] | total protein half-life in vivo [3] | total protein half-life in vivo [4] | total protein half-life in vivo [5] | total protein half-life in vivo [6] | total protein half-life in vivo [7] | total protein half-life in vivo [8] | total protein half-life in vivo [9] | total protein half-life in vivo [10] | total protein half-life in vivo [11] | total protein half-life in vivo [12]
MVQRITIAPQGPEFSRFVMGYWRLMDWNMSARQLVSFIEEHLDLGVTTVDHADIYGGYQCEAAFGEALKLAPHLRERMEIVSKCGIATTAREENVIGHYITDRDHIIKSAEQSLINLATDHLDLLLIHRPDPLMDADEVADAFKHLHQSGKVRHFGVSNFTPAQFALLQSRLPFTLATNQVEISPVHQPLLLDGTLDQLQQLRVRPMAWSCLGGGRLFNDDYFQPLRDELAVVAEELNAGSIEQVVYAWVLRLPSQPLPIIGSGKIERVRAAVEAETLKMTRQQWFRIRKAALGYDVP | 5.21 ± 0.14 h | 5.59 ± 0.96 h | 4.95 ± 0.13 h | 5.07 ± 0.77 h | 4.67 ± 0.12 h | 2.86 ± 0.26 h | 5.71 ± 0.085 h | 9.47 ± 0.64 h | 5 ± 0.25 h | 8.62 ± 0.69 h | 5.79 ± 0.17 h | 10.9 ± 0.49 h
MKKTRTANLHHLYHEPLPENLKLTPKVEVDNVHQRQTTDVYEHALTITAWQQIYDQLHPGKFHGEFTEILLDDIQVFREYTGLALRQSCLVWPNSFWFGIPATRGEQGFIGSQCLGSAEIATRPGGTEFELSTPDDYTILGVVLSEDVITRQANFLHNPDRVLHMLRNQSALEVKEQHKAALWGFVQQALATFCENPENLHQPAVRKVLGDNLLMAMGAMLEEAQPMVTAESISHQSYRRLLSRAREYVLENMSEPVTVLDLCNQLHVSRRTLQNAFHAILGIGPNAWLKRIRLNAVRRELISPWSQSMTVKDAAMQWGFWHLGQFATDYQQLFSEKPSLTLHQRMREWG | 5.53 ± 0.77 h | – | – | – | – | – | 1.42 h | – | – | 2.75 h | 1.29 h | –
MSKLIVPQWPQPKGVAACSSTRIGGVSLPPYDSLNLGAHCGDNPDHVEENRKRLFAAGNLPSKPVWLEQVHGKDVLKLTGEPYASKRADASYSNTPGTVCAVMTADCLPVLFCNRAGTEVAAAHAGWRGLCAGVLEETVSCFADNPENILAWLGPAIGPRAFEVGGEVREAFMAVDAKASAAFIQHGDKYLADIYQLARQRLANVGVEQIFGGDRCTYTENETFFSYRRDKTTGRMASFIWLI | 5.05 ± 0.14 h | 4.77 ± 0.76 h | 4.885 ± 0.007 h | 5.03 ± 0.24 h | 4.05 ± 1 h | 3.198 ± 0.027 h | 5.11 ± 0.72 h | 8.61 ± 0.21 h | 5.03 ± 0.22 h | 9.17 ± 0.77 h | 5.644 ± 0.043 h | 11.9 ± 0.43 h
MKLKTTLFGNVYQFKDVKEVLAKANELRSGDVLAGVAAASSQERVAAKQVLSEMTVADIRNNPVIAYEDDCVTRLIQDDVNETAYNQIKNWSISELREYVLSDETSVDDIAFTRKGLTSEVVAAVAKICSNADLIYGAKKMPVIKKANTTIGIPGTFSARLQPNDTRDDVQSIAAQIYEGLSFGVGDAVIGVNPVTDDVENLSRVLDTIYGVIDKFNIPTQGCVLAHVTTQIEAIRRGAPGGLIFQSICGSEKGLKEFGVELAMLDEARAVGAEFNRIAGENCLYFETGQGSALSAGANFGADQVTMEARNYGLARHYDPFIVNTVVGFIGPEYLYNDRQIIRAGLEDHFMGKLSGISMGCDCCYTNHADADQNLNENLMILLATAGCNYIMGMPLGDDIMLNYQTTAFHDTATVRQLLNLRPSPEFERWLESMGIMANGRLTKRAGDPSLFF [P0AEJ6] | 5.95 ± 1.3 h | 5.45 ± 0.56 h | 4.07 ± 0.41 h | 4.68 ± 0.12 h | 3.91 ± 0.24 h | 3.36 ± 0.3 h | 6.26 ± 0.2 h | 11.1 ± 0.83 h | 3.82 ± 0.15 h | 6.18 ± 0.099 h | 6.37 ± 0.16 h | 12 ± 0.84 h
MSKKIAVIGECMIELSEKGADVKRGFGGDTLNTSVYIARQVDPAALTVHYVTALGTDSFSQQMLDAWHGENVDTSLTQRMENRLPGLYYIETDSTGERTFYYWRNEAAAKFWLESEQSAAICEELANFDYLYLSGISLAILSPTSREKLLSLLRECRANGGKVIFDNNYRPRLWASKEETQQVYQQMLECTDIAFLTLDDEDALWGQQPVEDVIARTHNAGVKEVVVKRGADSCLVSIAGEGLVDVPAVKLPKEKVIDTTAAGDSFSAGYLAVRLTGGSAEDAAKRGHLTASTVIQYRGAIIPREAMPA | 4.86 ± 0.33 h | 4.46 ± 0.27 h | 4.84 ± 1.2 h | – | 4.53 ± 0.19 h | 2.44 ± 0.65 h | 5.96 ± 0.1 h | 11.1 ± 0.28 h | 4.64 ± 0.11 h | 8.67 ± 1.7 h | 5.5 ± 0.33 h | 10.6 ± 1.2 h
MTNNDTTLQLSSVLNRECTRSRVHCQSKKRALEIISELAAKQLSLPPQVVFEAILTREKMGSTGIGNGIAIPHGKLEEDTLRAVGVFVQLETPIAFDAIDNQPVDLLFALLVPADQTKTHLHTLSLVAKRLADKTICRRLRAAQSDEELYQIITDTEGTPDEA | 4.58 ± 0.29 h | 3.48 ± 2.9 h | 5.17 ± 0.097 h | 5.82 h | 3.01 ± 0.57 h | 2.46 ± 0.65 h | 5.18 ± 1.6 h | 9.11 ± 5.2 h | 3.79 h | 5.69 ± 0.31 h | 3.46 ± 1.9 h | 8.38 ± 1.6 h
MKYQQLENLESGWKWKYLVKKHREGELITRYIEASAAQEAVDVLLSLENEPVLVNGWIDKHMNPELVNRMKQTIRARRKRHFNAEHQHTRKKSIDLEFIVWQRLAGLAQRRGKTLSETIVQLIEDAENKEKYANKMSSLKQDLQALLGKE [P0A8N0] | – | 5.544 ± 0.014 h | 4.69 ± 0.85 h | 5.46 ± 0.53 h | 4.27 ± 1.1 h | 3.13 ± 0.038 h | 5.74 ± 0.2 h | 10.9 ± 5.6 h | 3.21 ± 1.6 h | 10.7 ± 5.8 h | – | 9.592 ± 0.066 h
